Assay results as given in PMC9524272 (Frontiers in Immunology, 2022).

Columns and labels:
[1] = biological target: SARS-CoV-2 spike receptor binding domain, Wuhan-Hu-1 (WT) (SARS-CoV-2 Wuhan-Hu-1, UniProt P0DTC2)
[2] = biological target: SARS-CoV-2 spike receptor binding domain, Delta B.1.617.2 (SARS-CoV-2 Delta B.1.617.2 (on …, strain))
[3] = biological target: SARS-CoV-2 spike receptor binding domain, Beta B.1.351 (SARS-CoV-2 Beta B.1.351 (on Wuhan-Hu-1 …, strain))
[4] = biological target: SARS-CoV-2 spike receptor binding domain, Omicron BA.1 (IPBCAMS-OM01/2021) (SARS-CoV-2 Omicron BA.1, isolate …, strain)
[5] = biological target: SARS-CoV-2 Spike RBD Omicron BA.4&BA.5 (SARS-CoV-2 Omicron BA.4/BA.5, strain)

B1: H7 (VHH)
VHH: QVQLVESGGGLVQPGGSLRLSCAASGYSYRSTYYLGWFRQAPGQGLEAVAAIYGAGSTYYADSVKGRFTISRDNSKNTLYLQMNSLRAEDTAVYYCAAGDESTRGYGYSWDYWGQGTLVTVSS
B1 gave a Kd [1] of 4.4 nM, a Kd [2] of 7.2 nM and a Kd [3] of 3.7 nM. B1: binds [4]; binds [5].
